In PMC6821831, “Colorimetric Assay Reports on Acyl Carrier Protein Interactions” (Scientific Reports, 2019):
Blank lines part the entries; values can stand above or below the binder they belong to.

B1: FabF (E. coli ketoacyl synthase) (enzyme, UniProt P0AAI5 1-413, looked up)
chain: MSKRRVVVTGLGMLSPVGNTVESTWKALLAGQSGISLIDHFDTSAYATKFAGLVKDFNCEDIISRKEQRKMDAFIQYGIVAGVQAMQDSGLEITEENATRIGAAIGSGIGGLGLIEENHTSLMNGGPRKISPFFVPSTIVNMVAGHLTIMYGLRGPSISIATACTSGVHNIGHAARIIAYGDADVMVAGGAEKASTPLGVGGFGAARALSTRNDNPQAASRPWDKERDGFVLGDGAGMLVLEEYEHAKKRGAKIYAELVGFGMSSDAYHMTSPPENGAGAALAMANALRDAGIEASQIGYVNAHGTSTPAGDKAEAQAVKTIFGEAASRVLVSSTKSMTGHLLGAAGAVESIYSILALRDQAVPPTINLDNPDEGCDLDFVPHEARQVSGMEYTLCNSFGFGGTNGSLIFKKI
notes: E. coli ketoacyl synthase FabF; Sediments mostly as a dimer in SV-AUC; also called KS; E. coli KS FabF; source: E. coli BL21, purified (Ni-NTA)

Experiments:
[1] = target: the molecule itself; assay: AUC; sedimentation velocity of each protein alone; FabF 10-36 uM, holo-AcpP 345-488 uM, holo-ACT ACP (wild type) 98-196 uM; 20 mM Tris-HCl pH 8.0, 150 mM NaCl, 1 mM DTT, 20 C
[2] = target: T1, holo-AcpP (E. coli FAS acyl carrier protein, 4'-phosphopantetheine arm installed) (E. coli), P0A6A8; assay: as above; conditions: remark: other sources report otherwise
T1 chain: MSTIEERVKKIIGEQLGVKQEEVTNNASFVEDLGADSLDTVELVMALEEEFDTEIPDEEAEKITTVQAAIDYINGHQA

[3] = target: B1; assay: colorimetric read-out of the cross-linking (TNB2− release, A412); ACP-TNB− mixed with FabF at ACP-TNB:FabF molar ratios 0.2:1 to 3:1; 50 mM sodium phosphate pH 7.6, 20 min, room temperature; A412 of the reaction mixture; conditions: both partners purified
[4] = target: B1; assay: AUC; sedimentation velocity titration; FabF constant at 16 uM, AcpP 0-230 uM or ACT ACP 0-250 uM; 20 mM Tris-HCl pH 8.0, 150 mM NaCl, 1 mM DTT, 20 C; s(w) and EPT s(w) fast isotherms fitted globally to A + B <-> AB; conditions: both partners purified

Binder: B1
stoichiometry N [1]: 2

stoichiometry N [2]: 4
B2: holo-AcpP (E. coli FAS acyl carrier protein, 4'-phosphopantetheine arm installed), P0A6A8 1-78 (natural protein)
chain: MSTIEERVKKIIGEQLGVKQEEVTNNASFVEDLGADSLDTVELVMALEEEFDTEIPDEEAEKITTVQAAIDYINGHQA
modifications: here or on the partner: 4'-phosphopantetheine (Ppant) arm on the conserved serine at the N-terminus of helix II (holo form); 4'-phosphopantetheine (Ppant) arm on the conserved serine at the N-terminus of helix II (holo form)

stoichiometry N [3]: 1
B3: AcpP-TNB− (E. coli AcpP with the Ppant thiol as mixed disulfide with 2-nitro-5-thiobenzoate) (natural protein, UniProt P0A6A8 1-78, looked up)
chain: MSTIEERVKKIIGEQLGVKQEEVTNNASFVEDLGADSLDTVELVMALEEEFDTEIPDEEAEKITTVQAAIDYINGHQA
modifications: 4'-phosphopantetheine arm on the conserved serine; its terminal thiol is a mixed disulfide with 2-nitro-5-thiobenzoate (TNB−)
notes: E. coli fatty acid synthase acyl carrier protein AcpP, UniProt P0A6A8; also called ACP-TNB−; AcpP-TNB− adduct; source: E. coli BAP1, purified (Ni-NTA), converted to holo form with Sfp R4-4, treated with DTNB, desalted (PD-10)

Kd [4]: 6.4 ± 2 µM
B4: holo-AcpP (E. coli FAS acyl carrier protein, 4'-phosphopantetheine arm installed) (natural protein, UniProt P0A6A8 1-78, looked up)
chain: MSTIEERVKKIIGEQLGVKQEEVTNNASFVEDLGADSLDTVELVMALEEEFDTEIPDEEAEKITTVQAAIDYINGHQA
modifications: 4'-phosphopantetheine (Ppant) arm on the conserved serine at the N-terminus of helix II (holo form)
notes: E. coli fatty acid synthase acyl carrier protein AcpP, UniProt P0A6A8; N- and C-terminal His6, from pKJ5535 or pTL14; AUC section gives 12.3 kDa for AcpP; also called E. coli ACP; source: E. coli BAP1, purified (Ni-NTA); converted to holo form on resin with Sfp R4-4 and coenzyme A
